# Data: patent US20240035010, “COMPOSITIONS COMPRISING A VARIANT POLYPEPTIDE AND USES THEREOF” (Arbor Biotechnologies, Inc., published 2024)
# Residue numbers refer to the chain shown, from its start.
# B1: VEGFA crRNA ; VEGFA target (ssRNA ; dsDNA)
# RNA: CUUGUUGUAUAUGUCCUUUUAUAGGUAUUAAACAACUCCAGACCACCAAUGGGCAC
# DNA 1: TCCAGACCACCAATGGGCAC
# DNA 2: GTGCCCATTGGTGGTCTGGA
# What was measured:
# [1] = molecular target: T1, variant nuclease L38G combination (P14R, D32R, I61R, E311R, L38G); assay: cell_activity; PAM 5'-TTTA-3'; details: tags: pcDNA3.1 expression
# T1 chain: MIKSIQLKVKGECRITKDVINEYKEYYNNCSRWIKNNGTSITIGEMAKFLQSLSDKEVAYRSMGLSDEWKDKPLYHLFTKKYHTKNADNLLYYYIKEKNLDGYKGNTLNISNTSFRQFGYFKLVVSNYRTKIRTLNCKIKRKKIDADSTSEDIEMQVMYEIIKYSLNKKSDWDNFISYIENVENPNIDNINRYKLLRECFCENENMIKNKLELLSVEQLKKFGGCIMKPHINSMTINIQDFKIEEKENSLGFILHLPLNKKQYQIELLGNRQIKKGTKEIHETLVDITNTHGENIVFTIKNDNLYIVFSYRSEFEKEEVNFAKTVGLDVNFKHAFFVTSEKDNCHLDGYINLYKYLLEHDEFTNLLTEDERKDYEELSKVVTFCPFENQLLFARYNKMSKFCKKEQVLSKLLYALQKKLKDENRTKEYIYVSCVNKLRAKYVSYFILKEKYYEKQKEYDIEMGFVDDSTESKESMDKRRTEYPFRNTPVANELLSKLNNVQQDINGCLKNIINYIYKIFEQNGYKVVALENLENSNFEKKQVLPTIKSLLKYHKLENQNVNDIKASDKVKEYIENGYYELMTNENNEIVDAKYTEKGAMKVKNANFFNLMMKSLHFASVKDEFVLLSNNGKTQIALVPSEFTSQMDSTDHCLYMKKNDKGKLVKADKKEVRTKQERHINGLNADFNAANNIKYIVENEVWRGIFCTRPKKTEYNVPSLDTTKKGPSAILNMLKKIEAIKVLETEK
# In short: (§1)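 HEK293T cells were lipofected with nuclease plasmid (pcDNA3.1 backbone) plus RNA guide plasmid, with guide omitted in negative controls. After ~72 h cells were lysed in QuickExtract and % indels were derived from NGS reads, averaged over two bioreplicates and two technical replicates.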
# [2] = molecular target: T2, variant nuclease D590G combination (P14R, D32R, I61R, E311R, D590G); assay: cell_activity; PAM 5'-TTTA-3'; details: tags: pcDNA3.1 expression
# T2 chain: T1 chain with G38L, D590G
# In short: as §1
binder,measurement,setting,value
B1,indel activity,[1],0.22 fold of WT
same,indel activity,[2],2.68 fold of WT
